Experimental data taken from US20170210813A1 (Regeneron, published 2017).
Positions count from the first letter of the chain named. Names and notes keep the numbering of the source.

T1: Macaca fascicularis PDGFRb.mmh (Macaca fascicularis)
T1 construct: Soluble monomeric construct; also called mfPDGFRb.mmh
T1 chain: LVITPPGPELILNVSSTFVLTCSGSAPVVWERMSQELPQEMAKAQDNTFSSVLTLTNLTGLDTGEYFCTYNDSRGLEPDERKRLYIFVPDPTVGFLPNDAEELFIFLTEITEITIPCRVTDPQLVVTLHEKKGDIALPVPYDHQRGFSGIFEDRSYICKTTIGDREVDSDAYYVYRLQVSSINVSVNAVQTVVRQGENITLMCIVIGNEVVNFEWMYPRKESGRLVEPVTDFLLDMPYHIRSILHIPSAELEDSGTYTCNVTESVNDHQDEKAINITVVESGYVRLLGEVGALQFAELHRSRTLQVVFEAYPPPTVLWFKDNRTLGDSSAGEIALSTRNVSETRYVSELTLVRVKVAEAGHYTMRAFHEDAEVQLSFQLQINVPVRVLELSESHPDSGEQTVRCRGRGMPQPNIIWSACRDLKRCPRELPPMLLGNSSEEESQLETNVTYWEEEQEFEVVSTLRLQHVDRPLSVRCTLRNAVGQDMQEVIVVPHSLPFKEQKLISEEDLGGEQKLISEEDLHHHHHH

B1: H4H3098S (antibody, human IgG4, V domains shown)
VH: EVQLVESGGGVVQPGRSLRLSCAASGFTFSNYGMHWVRQAPGKGLEWVTVIWYDGSYKYYADSVKGRFTISRDNSKNRLYLQMNSLRAEDTAVYYCARGELGDAFDIWGQGTMVTVSS
VL: DIQMTQSPSTLSASVGDRLTITCRASQSISTWLAWYQQKPGKAPTLLIYKASSLESGVPSRFSGSGSGTDFTLTISSLQPDDFATYYCQQYKTSWTFGQGTKLEIKR
notes: human IgG4 Fc (H4H prefix)
B2: H4H3097S (antibody, human IgG4, V domains shown)
VH: QVQLVESGAEMKKPGASVKVSCKASGYTFTDYGINWVRQAPGQGLEWMGWVSGYNGNTVFAQKIQGRVTMTTDTSTSTAYMELRSLRSDDTAVYFCARISVRGHSYYHGMGVWGQGTTVTVSS
VL: AIRMTQSPSSLSASVGDRVTITCRASQDINSYLAWFQQKPGKAPKSLIYTASSLQSGVPSKFSGSGSGTDFTLTISSLQPEDFATYYCQQYNTYPYTFGQGTKVESK
notes: human IgG4 Fc (H4H prefix)
B3: H4H3096S (antibody, human IgG4, V domains shown)
VH: EVQLVQSGGSLVQPGGSLRLSCTASGFTFSSYWMSWVRQAPGKGLEWVANIQQDESEKYYVDSVKGRFSISRDNAKKSLYLQMNSLRAEDTAVYFCARDLVPPRQGDYYHYFGMDVWGQGTLVTVSS
VL: AIRMTQSPSTLSASVGDRVTITCRASQSISDWLAWYQQKPGKAPNLLIYKASSLESGVPSRFSGSGSGTEFTLTISGLQPDDFATYYCQQYNSYSRTFGQGTKLEIKR
notes: human IgG4 Fc (H4H prefix)
B4: H4H3105S (antibody, human IgG4, V domains shown)
VH: B3 VH with E1Q, Q6E, S21A, S56N, A88V, L122T
VL: DIQLTQSPSTLSASVGDRVTITCRASQSISDWLAWYQQKPGKAPNLLIYKASTLESGVPSRFSGSGSGTEFTLTISSLQPDDFATYYCQQYNSYSRTFGQGTKVEIK
notes: human IgG4 Fc (H4H prefix)
B5: H4H3106S (antibody, human IgG4, V domains shown)
VH: QVQLVESGGGLVQPGGSLRLSCAASGFTFSSYWMSWVRQVPGKGLEWVANMNQDGTEKYYVDSVKGRLTISRENVKNSLYLQMNGLRAEDTAVYYCARDLVPPRQGDYYYYFGMDVWGHGTMVTVSS
VL: B4 VL with D1A, L4M, R18I, N45K, Y49F, T53S, E70D, E105D
notes: human IgG4 Fc (H4H prefix)
B6: H4H3104S (antibody, human IgG4, V domains shown)
VH: QVQLVESGGGLVQPGGSLRLSCAAAGFTFSHYWMSWVRQAPGKGLEWVATIKKDGSERYYVDSVKGRFTISRDNARNSMYLEMNSLRTEDTAIYYCARDIVTPNTDYYFGMDVWGQGTTVTVSS
VL: B4 VL with I29F, S30N, D31N, A34S, N45K, K50M, E70D, S76N, Y91S, Q100H
notes: human IgG4 Fc (H4H prefix)
B7: H4H3102S (antibody, human IgG4, V domains shown)
VH: EVQLVESGGDLVHPGRSLRLSCVASGFTFDDYTMHWVRQAPGKGLEWVSAISWNGDNINYAGSVKGRFTISRDNAKNSLYLEMNSLRVEDTAFYYCAKGRGFSFGFNYLGQGTMVTVSS
VL: AIRMTQSPSSLSASVGDRVTITCRASQDISNYLAWFQQQPGKAPKSLIYATSSLNSGVPSKFSGSGSGTDFTLTISSLQPEDFATYYCQQYKSYPLTFGGGTKVEIK
notes: human IgG4 Fc (H4H prefix)

These binders were tested against T2, human PDGFRb.hFc (human) (assay: SPR, mAb captured, 25 C).
T2 construct: Soluble dimeric construct with human Fc; also called hPDGFRb.hFc
Procedure: (§1) Antibodies, expressed as either mouse Fc (prefix H1M; H2M) or human Fc (prefix H4H), were captured on their respective anti-Fc sensor surfaces (Mab capture format). […] Kinetic association (kₐ) and dissociation (kd) rate constants were determined by processing and fitting the data to a 1:1 binding model using Scrubber 2.0 curve fitting software.

Row | Binder | Kd [nM] | koff [s⁻¹] | kon [M⁻¹ s⁻¹] | t1/2 [min] | binding result
1 | B1 | 0.219 | 6.22e-05 | 280000 | 186 | 
2 | B2 |  |  |  |  | no binding
3 | B3 | 1.17 | 0.00026 | 222000 | 44 | 
4 | B4 | 0.91 | 0.000225 | 247000 | 51 | 
5 | B5 | 0.686 | 0.000215 | 314000 | 54 | 
6 | B6 | 0.304 | 0.000146 | 480000 | 79 | 
7 | B7 | 0.39 | 0.000118 | 300000 | 98 | 

Target: T1, Macaca fascicularis PDGFRb.mmh
Assay: SPR, mAb captured, 25 C
Procedure: as §1

Row | Binder | Kd [nM] | koff [s⁻¹] | kon [M⁻¹ s⁻¹] | t1/2 [min] | binding result
8 | B1 | 68.9 | 0.0094 | 136000 | 1.2 | 
9 | B2 |  |  |  |  | no binding
10 | B3 | 6.39 | 0.00117 | 182000 | 10 | 
11 | B4 | 5.2 | 0.000932 | 180000 | 12 | 
12 | B5 | 4.65 | 0.000882 | 190000 | 13 | 
13 | B6 | 0.909 | 0.000714 | 786000 | 16 | 
14 | B7 | 1.73 | 0.000489 | 283000 | 24 | 

These binders were tested against T3, hPDGFRb.mmh (human, UniProt P09619 33-531) (assay: SPR, mAb captured, 25 C).
T3 construct: Soluble monomeric construct; also called soluble human PDGFR-beta.mmh
Procedure: as §1

Row | Binder | Kd [nM] | koff [s⁻¹] | kon [M⁻¹ s⁻¹] | t1/2 [min] | binding result
15 | B1 | 1.54 | 0.000596 | 386000 | 19 | 
16 | B2 |  |  |  |  | no binding
17 | B3 | 3.68 | 0.00104 | 281000 | 11 | 
18 | B4 | 3.19 | 0.000784 | 246000 | 15 | 
19 | B5 | 2.49 | 0.000744 | 299000 | 16 | 
20 | B6 | 1.61 | 0.000688 | 428000 | 17 | 
21 | B7 | 0.89 | 0.000455 | 509000 | 25 | 

What follows are binders tested against full length human PDGFR-beta on HEK293 cells (human, UniProt P09619 33-1106) (assay: cell-based or functional assay).
Sequence of full length human PDGFR-beta on HEK293 cells (P09619 33-1106 limits assumed): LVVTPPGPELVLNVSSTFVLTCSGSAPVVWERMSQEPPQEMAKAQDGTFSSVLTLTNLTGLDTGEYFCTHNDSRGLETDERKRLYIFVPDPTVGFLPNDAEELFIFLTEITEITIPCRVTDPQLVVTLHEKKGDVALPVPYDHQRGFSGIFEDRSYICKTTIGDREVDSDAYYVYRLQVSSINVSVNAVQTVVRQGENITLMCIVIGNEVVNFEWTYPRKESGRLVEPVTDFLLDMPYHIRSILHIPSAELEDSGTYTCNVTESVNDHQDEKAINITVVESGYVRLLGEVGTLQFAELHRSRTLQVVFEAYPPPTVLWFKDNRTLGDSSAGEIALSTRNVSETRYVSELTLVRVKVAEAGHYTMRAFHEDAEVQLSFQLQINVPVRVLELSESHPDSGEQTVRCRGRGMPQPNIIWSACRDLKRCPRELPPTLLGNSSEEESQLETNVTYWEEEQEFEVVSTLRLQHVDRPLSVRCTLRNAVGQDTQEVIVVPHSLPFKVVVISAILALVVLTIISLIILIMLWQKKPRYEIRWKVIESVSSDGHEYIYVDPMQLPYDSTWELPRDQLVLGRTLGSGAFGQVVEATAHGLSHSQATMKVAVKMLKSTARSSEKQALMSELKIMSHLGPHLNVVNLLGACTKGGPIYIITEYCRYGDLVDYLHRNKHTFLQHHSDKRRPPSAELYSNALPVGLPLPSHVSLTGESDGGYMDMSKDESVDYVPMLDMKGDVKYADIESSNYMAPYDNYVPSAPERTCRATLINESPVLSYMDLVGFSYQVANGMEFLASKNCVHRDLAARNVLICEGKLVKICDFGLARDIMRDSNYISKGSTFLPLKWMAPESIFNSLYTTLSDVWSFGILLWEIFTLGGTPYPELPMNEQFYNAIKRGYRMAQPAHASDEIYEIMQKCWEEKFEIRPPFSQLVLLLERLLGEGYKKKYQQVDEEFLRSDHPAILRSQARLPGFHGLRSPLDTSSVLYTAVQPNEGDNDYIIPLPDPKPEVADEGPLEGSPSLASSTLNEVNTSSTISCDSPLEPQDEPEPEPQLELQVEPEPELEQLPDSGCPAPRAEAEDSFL

Row | Binder | IC50, blocking PDGF-BB (250 pM) activation, SRE-luciferase [M] | IC50, blocking PDGF-DD (400 pM) activation, SRE-luciferase [M]
22 | B1 | 1.2e-09 | 1.1e-09
23 | B3 | 4.5e-10 | 5.8e-10
24 | B4 | 5.8e-10 | 5.1e-10
25 | B5 | 7.4e-10 | 5.2e-10
26 | B6 | 5e-10 | 3.3e-10
27 | B7 | 4.1e-09 | 4.4e-09

These binders were tested against T3, hPDGFRb.mmh (assay: blocking ELISA, biot-hPDGFRb.mmh to coated PDGF-BB).
Procedure: The equilibrated PDGFR-beta/antibody solutions were added to ligand-coated plates, allowed to incubate for 1 hr, and washed. Levels of bound biot-hPDGFR-beta.mmh were detected using HRP conjugated streptavidin. Data were analyzed using Prism software and IC₅₀ values were calculated as the amount of antibody required to achieve 50% reduction of hPDGFR-beta-mmh bound to ligand. Maximum blocking values were also calculated and reflect the ability of the antibody to block relative to baseline. The absorbance measured at the constant amount of 250 pM biot-hPDGFR-beta-mmh on the dose curve is defined as 0% blocking and the absorbance with no added PDGFR-beta is defined as 100%. The absorbance of the wells containing the highest antibody concentration determined the maximum blocking percent.
Target sequence in this assay (P09619 other isoform, or with tags, fused parts or gaps): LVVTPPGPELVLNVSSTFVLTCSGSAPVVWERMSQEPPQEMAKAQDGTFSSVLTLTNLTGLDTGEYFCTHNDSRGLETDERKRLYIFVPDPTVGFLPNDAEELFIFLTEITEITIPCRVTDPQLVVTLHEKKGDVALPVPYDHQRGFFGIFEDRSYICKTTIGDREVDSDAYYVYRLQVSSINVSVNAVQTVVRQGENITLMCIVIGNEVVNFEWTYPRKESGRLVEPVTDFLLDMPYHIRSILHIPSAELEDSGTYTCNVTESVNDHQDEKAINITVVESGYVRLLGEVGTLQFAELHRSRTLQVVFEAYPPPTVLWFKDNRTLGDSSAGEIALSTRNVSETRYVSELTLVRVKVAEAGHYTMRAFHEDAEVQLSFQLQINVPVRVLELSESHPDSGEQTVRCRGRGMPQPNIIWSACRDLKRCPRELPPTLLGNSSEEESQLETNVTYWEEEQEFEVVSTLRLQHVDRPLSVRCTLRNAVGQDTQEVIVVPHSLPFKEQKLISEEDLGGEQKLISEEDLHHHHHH

Row | Binder | % Maximum Blocking [%] | IC50 [nM]
28 | B1 | -13 | 
29 | B2 | 5 | 
30 | B3 | 84 | 0.18
31 | B4 | 86 | 0.16
32 | B5 | 86 | 0.17
33 | B6 | 89 | 0.38
34 | B7 | 30 | 

These binders were tested against T2, human PDGFRb.hFc (assay: SPR, mAb captured, 37 C).
Procedure: as §1

Row | Binder | Kd [nM] | koff [s⁻¹] | kon [M⁻¹ s⁻¹] | t1/2 [min]
35 | B1 | 0.206 | 7.66e-05 | 374000 | 151
36 | B3 | 3.1 | 0.000793 | 250000 | 15
37 | B4 | 3 | 0.000824 | 280000 | 14
38 | B5 | 2.08 | 0.000741 | 356000 | 16
39 | B6 | 0.606 | 0.000567 | 936000 | 20
40 | B7 | 0.76 | 0.000319 | 420000 | 36

Target: T1, Macaca fascicularis PDGFRb.mmh
Assay: SPR, mAb captured, 37 C
Procedure: as §1

Row | Binder | Kd [nM] | koff [s⁻¹] | kon [M⁻¹ s⁻¹] | t1/2 [min]
41 | B1 | 95.6 | 0.0267 | 280000 | 0.4
42 | B3 | 31.6 | 0.00512 | 162000 | 2
43 | B4 | 14.4 | 0.00416 | 289000 | 3
44 | B5 | 9.26 | 0.00345 | 372000 | 3
45 | B6 | 4.05 | 0.00299 | 740000 | 4
46 | B7 | 2.86 | 0.00164 | 574000 | 7

Each binder was assayed against T3, hPDGFRb.mmh (assay: SPR, mAb captured, 37 C).
Procedure: as §1
Target sequence in this assay (P09619 other isoform, or with tags, fused parts or gaps): as above

Row | Binder | Kd [nM] | koff [s⁻¹] | kon [M⁻¹ s⁻¹] | t1/2 [min]
47 | B1 | 2.34 | 0.00171 | 733000 | 7
48 | B3 | 13.8 | 0.00624 | 452000 | 2
49 | B4 | 11.3 | 0.00354 | 314000 | 3
50 | B5 | 8.49 | 0.00335 | 394000 | 3
51 | B6 | 3.37 | 0.0028 | 833000 | 4
52 | B7 | 1.42 | 0.00147 | 1.04e+06 | 8
